Reference: the supplement of paper PMC7125110
± gives the standard error. This sample holds only a part of the variants without activity.

B1: glmS ribozyme (parent)
chain: AUAAAAGCGCCAGAACUACAGAAAUGUAGUUGACGAGGAGGAGGUUUAUCGAAUUUUCGGCGGAUGCCUCCAAA

What was measured:
Conditions in all cases: with glucosamine-6-phosphate
[1] = variants of: B1; assay: self-cleavage kobs at 160 uM GlcN6P; higher = faster cleavage; RNA array
Procedure, shortened: (§1)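 A hybridised Cy3 probe tracked barcoded ribozyme variants, transcribed in situ by E. coli RNA polymerase on sequenced MiSeq chips, at 37 °C. The variants received 40 μM to 10 mM glucosamine-6-phosphate in HEPES/KCl/Mg(OAc)2 buffer. kobs came from decay fits and kcat and KM from weighted Michaelis–Menten fits.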

[2] = variants of: B1; assay: self-cleavage kobs at 2500 uM GlcN6P; higher = faster cleavage; RNA array
Procedure, shortened: as §1

[3] = variants of: B1; assay: self-cleavage kobs at 640 uM GlcN6P; higher = faster cleavage; RNA array
Procedure, shortened: as §1

[4] = variants of: B1; assay: self-cleavage kobs at 10000 uM GlcN6P; higher = faster cleavage; RNA array
Procedure, shortened: as §1

Variant	self-cleavage kobs at 160 uM GlcN6P [1] [s⁻¹]	self-cleavage kobs at 2500 uM GlcN6P [2] [s⁻¹]	self-cleavage kobs at 640 uM GlcN6P [3] [s⁻¹]	self-cleavage kobs at 10000 uM GlcN6P [4] [s⁻¹]
C8A G38U	< 1e-05	< 1e-05		
G29A G41U A53C C58A	< 1e-05	< 1e-05	< 1e-05	
G32U G43U	< 1e-05	< 1e-05		
A33U G38A A48G G66U U69G	4.81e-05 ± 1.6e-05		0.000108 ± 2.9e-05	
G9C G51U	< 1e-05		< 1e-05	< 1e-05
C11U G40C G43A G60U U69G C70U	< 1e-05	< 1e-05		
A15U C34A A64G	< 1e-05	< 1e-05		
C8A G63A	< 1e-05	< 1e-05		< 1e-05
C8U A15U U31G	< 1e-05		< 1e-05	
A33C A39C A52U C70U	< 1e-05		< 1e-05	
G43C C61U	< 1e-05	< 1e-05	< 1e-05	< 1e-05
U30G C50G C58G G60U C61G	0.000251 ± 7.4e-05	0.00022 ± 6.9e-05	0.00014 ± 2.9e-05	
G13U G35C A64U	< 1e-05	< 1e-05	< 1e-05	
A12G C58U G59A	< 1e-05			
A52C U65A	< 1e-05	< 1e-05	< 1e-05	< 1e-05
A42C A53C	< 1e-05		< 1e-05	
G13A G41U G43C	< 1e-05		< 1e-05	
A39G C50G	0.000247 ± 0.00011			
G7U G9C G59C U69G	< 1e-05		< 1e-05	
C10G G44U C50U C61U	< 1e-05		< 1e-05	
C10G U45C U49A U54G C70G	< 1e-05		< 1e-05	
C8U G9C G62A U65G	< 1e-05	< 1e-05		
A15C A36G G38U	< 1e-05	< 1e-05		
A36C G38C U56C	< 1e-05	< 1e-05		
A36U U45A	< 1e-05		< 1e-05	
A14C C16G G38A A48G U49A	< 1e-05			
U31G U45G U49A U56A	< 1e-05			< 1e-05

Variant	self-cleavage kobs at 160 uM GlcN6P [1] [s⁻¹]	self-cleavage kobs at 2500 uM GlcN6P [2] [s⁻¹]	self-cleavage kobs at 640 uM GlcN6P [3] [s⁻¹]	self-cleavage kobs at 10000 uM GlcN6P [4] [s⁻¹]
A6U C11G U30G U31A A42U	< 1e-05	< 1e-05	< 1e-05	
A33C G44U	< 1e-05	< 1e-05	< 1e-05	< 1e-05
A36U A42U	< 1e-05	< 1e-05	< 1e-05	< 1e-05
G32U C50A G59A	< 1e-05		< 1e-05	
G35C C50A G51U A52C	< 1e-05		< 1e-05	
G9U C10U U54G	< 1e-05			
G44A G51U	< 1e-05			< 1e-05
A15C A39U A42C C67G	< 1e-05	< 1e-05	< 1e-05	
G37C U47C A52U	< 1e-05			
G29U U31A U56A C67A	2.97e-05 ± 1.5e-05			0.00027 ± 5.8e-05
A6U G32C G62U	< 1e-05			
A6U G41U C68A	< 1e-05	< 1e-05		
G29A A53U C67A	7.84e-05 ± 1.8e-05	0.000241 ± 7.1e-05	0.00017 ± 4e-05	
A36C A39G C68U	< 1e-05		< 1e-05	
G35U A53U G60U	< 1e-05		< 1e-05	
A6G C50G U54C	5.66e-05 ± 2e-05		5.17e-05 ± 2.4e-05	
C8G C16A	< 1e-05	< 1e-05	< 1e-05	< 1e-05
C8U G32C U47A	< 1e-05	< 1e-05	< 1e-05	
A15C G40A U45A C70G	< 1e-05		< 1e-05	
C58A G59C	< 1e-05		< 1e-05	< 1e-05
C11U C61A G63C	< 1e-05		< 1e-05	
U30G C34A	< 1e-05	< 1e-05	< 1e-05	
C10A C68G	0.000416 ± 0.00019	6.4e-05 ± 1.8e-05	6.2e-05 ± 2.8e-05	
G29U U45C U56C	< 1e-05			
A12G U49A G63U	< 1e-05		< 1e-05	
U47C G62C	< 1e-05	< 1e-05	< 1e-05	< 1e-05
C16U A42G A48U G66U	< 1e-05		< 1e-05	
